Experimental data: patent US20240270874A1 (JIANGSU HENGRUI PHARMACEUTICALS, published 2024)

target: T1, human FGFR1c on cells (human, UniProt P11362 22-822); test: hybridoma clone screening on recombinant cells
T1 construct: whole, on cells; also called hFGFR1c; CHOK1-hFGFR1c
T1 sequence (P11362 22-822): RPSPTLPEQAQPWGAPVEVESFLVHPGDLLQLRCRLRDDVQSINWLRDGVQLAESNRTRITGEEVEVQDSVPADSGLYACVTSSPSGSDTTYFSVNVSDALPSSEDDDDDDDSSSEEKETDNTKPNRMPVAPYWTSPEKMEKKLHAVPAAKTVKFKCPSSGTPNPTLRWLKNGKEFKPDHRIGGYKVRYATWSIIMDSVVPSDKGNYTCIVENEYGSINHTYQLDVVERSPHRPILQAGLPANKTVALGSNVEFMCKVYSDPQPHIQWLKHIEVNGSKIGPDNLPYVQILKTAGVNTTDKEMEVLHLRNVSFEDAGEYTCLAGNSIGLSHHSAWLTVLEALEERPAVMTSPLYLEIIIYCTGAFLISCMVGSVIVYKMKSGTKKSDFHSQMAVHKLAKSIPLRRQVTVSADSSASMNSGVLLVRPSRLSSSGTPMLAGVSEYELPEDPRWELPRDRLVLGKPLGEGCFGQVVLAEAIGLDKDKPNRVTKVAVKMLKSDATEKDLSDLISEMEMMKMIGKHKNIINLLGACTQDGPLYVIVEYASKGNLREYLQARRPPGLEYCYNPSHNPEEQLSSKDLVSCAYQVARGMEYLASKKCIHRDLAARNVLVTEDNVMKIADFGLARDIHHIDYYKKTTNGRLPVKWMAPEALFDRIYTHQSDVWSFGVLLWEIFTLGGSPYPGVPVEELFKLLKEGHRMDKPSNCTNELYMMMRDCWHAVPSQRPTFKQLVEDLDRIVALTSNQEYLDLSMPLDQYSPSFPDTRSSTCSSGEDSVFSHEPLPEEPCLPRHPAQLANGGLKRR

Row | Binder | binding result
1 | mAb-18 (antibody, V domains shown, murine hybridoma antibody; also called murine antibody mAb-18) VH: QVQLQQSGPELVRPGVSVKISCKGSGYTFTDYAMHWVKQTHAKSLEWIGVISTYSGTTNYNQNFKGKATVTVDKSSSTAYMELARLTSEDSAIYYCARSGPLDYWGQGTSLTVSS VL: ENVLTQSPAIMSASPGEKVTMTCRASSSVSSSYLHWYQQKSGASPKLWIYSTSNLASGVPERFSGSGSGTSYSLTISSVEAEDAATYYCQQYSGYPLTFGSGTKLEIK | no binding
2 | mAb-99 (antibody, V domains shown, murine hybridoma antibody; also called murine antibody mAb-99) VH: EVQLQQSGAELVRPGSSVKMSCKTSGYTFTNYGINWVKQRPRQGLEWIGYIYIGNGDIEYNAKFKGKATLTSDTSSSTAYMQLSSLTSEDSAIYFCARGRGLGHFDVWGTGTTVTVSS VL: DVQITQSPSYLAASPGETITINCRASKSISKFLAWFQEKPGKTNKLLIYSGSTLQSGIPSRFSGSGSGTDFTLTISGLEPEDFAMYYCQQHNEYPWTFGGGTKLEIK | no binding

target: T2, human KLB on CHOK1-hKLB cells (human, UniProt Q86Z14 1-1044); test: flow cytometry on CHOK1-hKLB cells
T2 construct: whole, on cells; also called human KLB antigen; β-Klotho
T2 sequence (looked up): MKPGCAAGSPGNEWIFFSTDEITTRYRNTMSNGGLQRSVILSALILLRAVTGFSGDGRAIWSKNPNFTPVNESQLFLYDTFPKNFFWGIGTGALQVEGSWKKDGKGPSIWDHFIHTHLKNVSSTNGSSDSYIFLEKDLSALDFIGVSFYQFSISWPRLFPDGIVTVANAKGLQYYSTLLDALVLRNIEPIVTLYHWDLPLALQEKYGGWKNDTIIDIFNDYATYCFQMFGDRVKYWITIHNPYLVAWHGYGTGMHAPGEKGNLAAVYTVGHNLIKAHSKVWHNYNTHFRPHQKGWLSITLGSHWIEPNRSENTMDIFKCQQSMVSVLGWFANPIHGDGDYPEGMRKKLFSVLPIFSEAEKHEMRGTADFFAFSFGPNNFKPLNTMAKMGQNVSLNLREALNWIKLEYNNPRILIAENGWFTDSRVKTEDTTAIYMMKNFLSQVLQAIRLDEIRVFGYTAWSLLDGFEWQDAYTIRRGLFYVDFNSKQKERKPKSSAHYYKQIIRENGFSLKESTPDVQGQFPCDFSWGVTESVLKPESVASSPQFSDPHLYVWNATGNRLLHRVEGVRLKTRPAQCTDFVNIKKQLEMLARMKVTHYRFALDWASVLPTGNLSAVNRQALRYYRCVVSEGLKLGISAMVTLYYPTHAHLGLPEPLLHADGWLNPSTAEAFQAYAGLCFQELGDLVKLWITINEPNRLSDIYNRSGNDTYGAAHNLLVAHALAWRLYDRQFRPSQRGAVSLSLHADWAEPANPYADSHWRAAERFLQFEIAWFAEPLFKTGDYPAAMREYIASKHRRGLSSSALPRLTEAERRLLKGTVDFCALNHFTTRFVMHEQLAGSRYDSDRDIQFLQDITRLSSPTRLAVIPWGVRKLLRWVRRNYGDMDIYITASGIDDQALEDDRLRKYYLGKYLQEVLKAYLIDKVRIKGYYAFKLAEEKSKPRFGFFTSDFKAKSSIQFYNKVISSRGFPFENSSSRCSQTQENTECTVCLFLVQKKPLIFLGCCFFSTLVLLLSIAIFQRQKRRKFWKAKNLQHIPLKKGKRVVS
Text: The above heavy chain variable regions were fused to the heavy chain constant region (set forth in SEQ ID NO: 22) and the light chain variable regions were fused to the light chain constant region (set forth in SEQ ID NO: 23) to construct anti-KLB antibodies, and the binding activity of the obtained antibodies for CHOK1-hKLB was detected (see Test Example 2 of the present disclosure for the experimental method).
The binding ability of the antibodies for CHOK1 cell strains CHOK1-hKLB and CHOK1-cynoKLB overexpressing human KLB and monkey KLB (see Example 1 for specific preparation procedure), respectively, was detected by flow cytometry. The specific procedure was as follows: the above cells were cultured in 10% FBS-containing IMDM medium and incubated in an incubator at 37° C. and 5% CO₂ for 2 days. The cells were then added to a cell plate at 1×10⁵ cells per well, centrifuged at 300 g for 5 min, and then washed once with 1% BSA. The antibody diluted in gradient was added to the cell plate at 100 μL per well, and the mixture was incubated at 4° C. for 1 h and washed once with 1% BSA. The diluted (1:400) APC-goat anti-human IgG Fc fluorescent secondary antibody was added at 100 μL per well, and the resulting mixture was incubated at 4° C. for 1 h. The plate was washed three times with 1% BSA, PBS was added at 100 μL per well, and the plate was read.

Row | Binder | EC50 [nM]
3 | mAb18-hIgG1 (antibody, V domains shown, chimeric: murine mAb-18 variable regions on human IgG1 (L234A, L235A) / kappa constant regions; also called chimeric antibody of mAb18) VH: QVQLQQSGPELVRPGVSVKISCKGSGYTFTDYAMHWVKQTHAKSLEWIGVISTYSGTTNYNQNFKGKATVTVDKSSSTAYMELARLTSEDSAIYYCARSGPLDYWGQGTSLTVSS VL: ENVLTQSPAIMSASPGEKVTMTCRASSSVSSSYLHWYQQKSGASPKLWIYSTSNLASGVPERFSGSGSGTSYSLTISSVEAEDAATYYCQQYSGYPLTFGSGTKLEIKR | 2.16
4 | mAb99-hIgG1 (antibody, V domains shown, chimeric: murine mAb-99 variable regions on human IgG1 (L234A, L235A) / kappa constant regions; also called chimeric antibody of mAb99) VH: EVQLQQSGAELVRPGSSVKMSCKTSGYTFTNYGINWVKQRPRQGLEWIGYIYIGNGDIEYNAKFKGKATLTSDTSSSTAYMQLSSLTSEDSAIYFCARGRGLGHFDVWGTGTTVTVSS VL: DVQITQSPSYLAASPGETITINCRASKSISKFLAWFQEKPGKTNKLLIYSGSTLQSGIPSRFSGSGSGTDFTLTISGLEPEDFAMYYCQQHNEYPWTFGGGTKLEIKR | 0.97
5 | hAb18-9 (antibody, human IgG1, kappa, L234A L235A, V domains shown, humanized mAb-18: hAb18VH1 + hAb18VL2-3; human IgG1 (L234A, L235A) / kappa constant regions) VH: EVQLVQSGAEVKKPGASVKVSCKASGYTFTDYAMHWVRQAPGQRLEWMGVISTYSGTTNYNQNFKGRVTITVDKSASTAYMELSSLRSEDTAVYYCARSGPLDYWGQGTTVTVSS VL: ENVLTQSPDFQSVTPKEKVTITCRVSSSVSSSYLHWYQQKPDQSPKLWIYSTSQLASGVPSRFSGSGSGTDYTLTINSLEAEDAATYYCQQYSGYPLTFGQGTKLEIKR | 2.4
6 | hAb18-14 (antibody, human IgG1, kappa, L234A L235A, V domains shown, humanized mAb-18: hAb18VH1 + hAb18VL2-8; human IgG1 (L234A, L235A) / kappa constant regions) VH: EVQLVQSGAEVKKPGASVKVSCKASGYTFTDYAMHWVRQAPGQRLEWMGVISTYSGTTNYNQNFKGRVTITVDKSASTAYMELSSLRSEDTAVYYCARSGPLDYWGQGTTVTVSS VL: ENVLTQSPDFQSVTPKEKVTITCRATSSVSSSYLHWYQQKPDQSPKLWIYSTSNLASGVPSRFSGSGSGTDYTLTINSLEAEDAATYYCQQYSGYPLTFGQGTKLEIKR | 1.6
7 | hAb18-12 (antibody, human IgG1, kappa, L234A L235A, V domains shown, humanized mAb-18: hAb18VH1 + hAb18VL2-6; human IgG1 (L234A, L235A) / kappa constant regions) VH: EVQLVQSGAEVKKPGASVKVSCKASGYTFTDYAMHWVRQAPGQRLEWMGVISTYSGTTNYNQNFKGRVTITVDKSASTAYMELSSLRSEDTAVYYCARSGPLDYWGQGTTVTVSS VL: ENVLTQSPDFQSVTPKEKVTITCRASSSLSSSYLHWYQQKPDQSPKLWIYSTSQLASGVPSRFSGSGSGTDYTLTINSLEAEDAATYYCQQYSGYPLTFGQGTKLEIKR | 1.9
8 | hAb18-19 (antibody, human IgG1, kappa, L234A L235A, V domains shown, humanized mAb-18: hAb18VH1 + hAb18VL2-13; human IgG1 (L234A, L235A) / kappa constant regions) VH: EVQLVQSGAEVKKPGASVKVSCKASGYTFTDYAMHWVRQAPGQRLEWMGVISTYSGTTNYNQNFKGRVTITVDKSASTAYMELSSLRSEDTAVYYCARSGPLDYWGQGTTVTVSS VL: ENVLTQSPDFQSVTPKEKVTITCRASSNVSSSYLHWYQQKPDQSPKLWIYSTSNLASGVPSRFSGSGSGTDYTLTINSLEAEDAATYYCQQYSGYPLTFGQGTKLEIKR | 4.1
9 | hAb18-18 (antibody, human IgG1, kappa, L234A L235A, V domains shown, humanized mAb-18: hAb18VH1 + hAb18VL2-12; human IgG1 (L234A, L235A) / kappa constant regions) VH: EVQLVQSGAEVKKPGASVKVSCKASGYTFTDYAMHWVRQAPGQRLEWMGVISTYSGTTNYNQNFKGRVTITVDKSASTAYMELSSLRSEDTAVYYCARSGPLDYWGQGTTVTVSS VL: ENVLTQSPDFQSVTPKEKVTITCRASSSLSSSYLHWYQQKPDQSPKLWIYSTSNLASGVPSRFSGSGSGTDYTLTINSLEAEDAATYYCQQYSGYPLTFGQGTKLEIKR | 1.7
10 | hAb18-17 (antibody, human IgG1, kappa, L234A L235A, V domains shown, humanized mAb-18: hAb18VH1 + hAb18VL2-11; human IgG1 (L234A, L235A) / kappa constant regions) VH: EVQLVQSGAEVKKPGASVKVSCKASGYTFTDYAMHWVRQAPGQRLEWMGVISTYSGTTNYNQNFKGRVTITVDKSASTAYMELSSLRSEDTAVYYCARSGPLDYWGQGTTVTVSS VL: ENVLTQSPDFQSVTPKEKVTITCRASSSVTSSYLHWYQQKPDQSPKLWIYSTSNLASGVPSRFSGSGSGTDYTLTINSLEAEDAATYYCQQYSGYPLTFGQGTKLEIKR | 1.8
11 | hAb18-16 (antibody, human IgG1, kappa, L234A L235A, V domains shown, humanized mAb-18: hAb18VH1 + hAb18VL2-10; human IgG1 (L234A, L235A) / kappa constant regions) VH: EVQLVQSGAEVKKPGASVKVSCKASGYTFTDYAMHWVRQAPGQRLEWMGVISTYSGTTNYNQNFKGRVTITVDKSASTAYMELSSLRSEDTAVYYCARSGPLDYWGQGTTVTVSS VL: ENVLTQSPDFQSVTPKEKVTITCRASSSVSTSYLHWYQQKPDQSPKLWIYSTSNLASGVPSRFSGSGSGTDYTLTINSLEAEDAATYYCQQYSGYPLTFGQGTKLEIKR | 2.4

Second part, the binder after the results:

Row | EC50 [nM] | Binder
12 | 1.9 | hAb18-15 (antibody, human IgG1, kappa, L234A L235A, V domains shown, humanized mAb-18: hAb18VH1 + hAb18VL2-9; human IgG1 (L234A, L235A) / kappa constant regions) VH: EVQLVQSGAEVKKPGASVKVSCKASGYTFTDYAMHWVRQAPGQRLEWMGVISTYSGTTNYNQNFKGRVTITVDKSASTAYMELSSLRSEDTAVYYCARSGPLDYWGQGTTVTVSS VL: ENVLTQSPDFQSVTPKEKVTITCRVSSSVSSSYLHWYQQKPDQSPKLWIYSTSNLASGVPSRFSGSGSGTDYTLTINSLEAEDAATYYCQQYSGYPLTFGQGTKLEIKR
13 | 2.7 | hAb18-11 (antibody, human IgG1, kappa, L234A L235A, V domains shown, humanized mAb-18: hAb18VH1 + hAb18VL2-5; human IgG1 (L234A, L235A) / kappa constant regions) VH: EVQLVQSGAEVKKPGASVKVSCKASGYTFTDYAMHWVRQAPGQRLEWMGVISTYSGTTNYNQNFKGRVTITVDKSASTAYMELSSLRSEDTAVYYCARSGPLDYWGQGTTVTVSS VL: ENVLTQSPDFQSVTPKEKVTITCRASSSVTSSYLHWYQQKPDQSPKLWIYSTSQLASGVPSRFSGSGSGTDYTLTINSLEAEDAATYYCQQYSGYPLTFGQGTKLEIKR
14 | 5.4 | hAb18-13 (antibody, human IgG1, kappa, L234A L235A, V domains shown, humanized mAb-18: hAb18VH1 + hAb18VL2-7; human IgG1 (L234A, L235A) / kappa constant regions) VH: EVQLVQSGAEVKKPGASVKVSCKASGYTFTDYAMHWVRQAPGQRLEWMGVISTYSGTTNYNQNFKGRVTITVDKSASTAYMELSSLRSEDTAVYYCARSGPLDYWGQGTTVTVSS VL: ENVLTQSPDFQSVTPKEKVTITCRASSNVSSSYLHWYQQKPDQSPKLWIYSTSQLASGVPSRFSGSGSGTDYTLTINSLEAEDAATYYCQQYSGYPLTFGQGTKLEIKR
15 | 2.7 | hAb18-10 (antibody, human IgG1, kappa, L234A L235A, V domains shown, humanized mAb-18: hAb18VH1 + hAb18VL2-4; human IgG1 (L234A, L235A) / kappa constant regions) VH: EVQLVQSGAEVKKPGASVKVSCKASGYTFTDYAMHWVRQAPGQRLEWMGVISTYSGTTNYNQNFKGRVTITVDKSASTAYMELSSLRSEDTAVYYCARSGPLDYWGQGTTVTVSS VL: ENVLTQSPDFQSVTPKEKVTITCRASSSVSTSYLHWYQQKPDQSPKLWIYSTSQLASGVPSRFSGSGSGTDYTLTINSLEAEDAATYYCQQYSGYPLTFGQGTKLEIKR
